# From article PMC3814363, “Tracking in atomic detail the functional specializations in viral RecA helicases that occur during evolution” (Nucleic Acids Research, 2013)
# B1: ɸ6 P4Δ310 (C-terminally truncated packaging NTPase P4 of bacteriophage ɸ6, missing residues 310–331) (domain or fragment, UniProt P11125 1-309, looked up)
# chain: MPIVVTQAHIDRVGIAADLLDASPVSLQVLGRPTAINTVVIKTYIAAVMELASKQGGSLAGVDIRPSVLLKDTAIFTKPKAKSADVESDVDVLDTGIYSVPGLARKPVTHRWPSEGIYSGVTALMGATGSGKSITLNEKLRPDVLIRWGEVAEAYDELDTAVHISTLDEMLIVCIGLGALGFNVAVDSVRPLLFRLKGAASAGGIVAVFYSLLTDISNLFTQYDCSVVMVVNPMVDAEKIEYVFGQVMASTVGAILCADGNVSRTMFRTNKGRIFNGAAPLAADTHMPSMDRPTSMKALDHTSIASVAP
# notes: packaging NTPase P4 of bacteriophage ɸ6, C-terminally truncated, missing residues 310–331; expressed from plasmid pJTJ7.3/7; Crystallised with ADP, Mg2+ and Ca2+; source: E. coli BL21(DE3) or B834(DE3), purified (Heparin, Q-sepharose, Superdex 200)
# B2: ɸ12 P4 ΔTTS202-204 (enzyme, bacteriophage ɸ12)
# chain: MIHLYDAKSFAKLRAAQYAAFHTDAPGSWFDHTSGVLESVEDGTPVLAIGVESGDAIVFDKNAQRIVAYKEKSVKAEDGSVSVVQVENGFMKQGHRGWLVDLTGELVGCSPVVAEFGGHRYASGMVIVTGKGNSGKTPLVHALGEALGGKDKYATVRFGEPLSGYNTDFNVFVDDIARAMLQHRVIVIDSLKNVIGAAGGNGGISRGAFDLLSDIGAMAASRGCVVIASLNPTSNDDKIVELVKEASRSNSTSLVISTDVDGEWQVLTRTGEGLQRLTHTLQTSYGEHSVLTIHTSKQSGGKQASGKAIQTVIKNDELESVLRRLTSN
# notes: packaging NTPase P4 of bacteriophage ɸ12 (gene 4) with the L1 loop central residues T202-T203-S204 deleted; made from plasmid pPG27, plasmid pDK249; also called ɸ12 ΔTTS202-204; source: E. coli BL21(DE3) or B834(DE3), purified (Heparin, Q-sepharose, Superdex 200)
# B3: ɸ12 P4 Y288A (enzyme, bacteriophage ɸ12)
# chain: MIHLYDAKSFAKLRAAQYAAFHTDAPGSWFDHTSGVLESVEDGTPVLAIGVESGDAIVFDKNAQRIVAYKEKSVKAEDGSVSVVQVENGFMKQGHRGWLVDLTGELVGCSPVVAEFGGHRYASGMVIVTGKGNSGKTPLVHALGEALGGKDKYATVRFGEPLSGYNTDFNVFVDDIARAMLQHRVIVIDSLKNVIGAAGGNTTSGGISRGAFDLLSDIGAMAASRGCVVIASLNPTSNDDKIVELVKEASRSNSTSLVISTDVDGEWQVLTRTGEGLQRLTHTLQTSAGEHSVLTIHTSKQSGGKQASGKAIQTVIKNDELESVLRRLTSN
# notes: packaging NTPase P4 of bacteriophage ɸ12 (gene 4) with Y288A; made from plasmid pPG27, plasmid pDK29; also called ɸ12 Y288A; source: E. coli BL21(DE3) or B834(DE3), purified (Heparin, Q-sepharose, Superdex 200)
# B4: ɸ12 P4-Q278A (enzyme)
# chain: MIHLYDAKSFAKLRAAQYAAFHTDAPGSWFDHTSGVLESVEDGTPVLAIGVESGDAIVFDKNAQRIVAYKEKSVKAEDGSVSVVQVENGFMKQGHRGWLVDLTGELVGCSPVVAEFGGHRYASGMVIVTGKGNSGKTPLVHALGEALGGKDKYATVRFGEPLSGYNTDFNVFVDDIARAMLQHRVIVIDSLKNVIGAAGGNTTSGGISRGAFDLLSDIGAMAASRGCVVIASLNPTSNDDKIVELVKEASRSNSTSLVISTDVDGEWQVLTRTGEGLARLTHTLQTSYGEHSVLTIHTSKQSGGKQASGKAIQTVIKNDELESVLRRLTSN
# notes: packaging NTPase P4 of bacteriophage ɸ12 (gene 4) with Q278A; made from plasmid pPG27, plasmid pDK30; Crystallised with 5 mM AMPcPP; also called ɸ12 Q278A; Q278A mutant; source: E. coli BL21(DE3) or B834(DE3), purified (Heparin, Q-sepharose, Superdex 200)
# B5: wild-type ɸ12 P4 (packaging NTPase P4 of bacteriophage ɸ12) (enzyme)
# chain: MIHLYDAKSFAKLRAAQYAAFHTDAPGSWFDHTSGVLESVEDGTPVLAIGVESGDAIVFDKNAQRIVAYKEKSVKAEDGSVSVVQVENGFMKQGHRGWLVDLTGELVGCSPVVAEFGGHRYASGMVIVTGKGNSGKTPLVHALGEALGGKDKYATVRFGEPLSGYNTDFNVFVDDIARAMLQHRVIVIDSLKNVIGAAGGNTTSGGISRGAFDLLSDIGAMAASRGCVVIASLNPTSNDDKIVELVKEASRSNSTSLVISTDVDGEWQVLTRTGEGLQRLTHTLQTSYGEHSVLTIHTSKQSGGKQASGKAIQTVIKNDELESVLRRLTSN
# notes: packaging NTPase P4 of bacteriophage ɸ12 (gene 4), wild type; plasmid pPG27; Crystallised here with 5 mM UTP; also called P4 ɸ12; source: E. coli BL21(DE3) or B834(DE3), purified (Heparin, Q-sepharose, Superdex 200)
# B6: ɸ12 P4 TTS202-204LKK (enzyme, bacteriophage ɸ12)
# chain: MIHLYDAKSFAKLRAAQYAAFHTDAPGSWFDHTSGVLESVEDGTPVLAIGVESGDAIVFDKNAQRIVAYKEKSVKAEDGSVSVVQVENGFMKQGHRGWLVDLTGELVGCSPVVAEFGGHRYASGMVIVTGKGNSGKTPLVHALGEALGGKDKYATVRFGEPLSGYNTDFNVFVDDIARAMLQHRVIVIDSLKNVIGAAGGNLKKGGISRGAFDLLSDIGAMAASRGCVVIASLNPTSNDDKIVELVKEASRSNSTSLVISTDVDGEWQVLTRTGEGLQRLTHTLQTSYGEHSVLTIHTSKQSGGKQASGKAIQTVIKNDELESVLRRLTSN
# notes: packaging NTPase P4 of bacteriophage ɸ12 (gene 4) with LKK instead of TTS (residues 202–204); cloned in the pT7-7 vector at NdeI-EcoRI sites; also called ɸ12 TTS202-204LKK; source: E. coli BL21(DE3) or B834(DE3), purified (Heparin, Q-sepharose, Superdex 200)
# B7: ɸ12 P4-S292A (enzyme)
# chain: MIHLYDAKSFAKLRAAQYAAFHTDAPGSWFDHTSGVLESVEDGTPVLAIGVESGDAIVFDKNAQRIVAYKEKSVKAEDGSVSVVQVENGFMKQGHRGWLVDLTGELVGCSPVVAEFGGHRYASGMVIVTGKGNSGKTPLVHALGEALGGKDKYATVRFGEPLSGYNTDFNVFVDDIARAMLQHRVIVIDSLKNVIGAAGGNTTSGGISRGAFDLLSDIGAMAASRGCVVIASLNPTSNDDKIVELVKEASRSNSTSLVISTDVDGEWQVLTRTGEGLQRLTHTLQTSYGEHAVLTIHTSKQSGGKQASGKAIQTVIKNDELESVLRRLTSN
# notes: packaging NTPase P4 of bacteriophage ɸ12 (gene 4) with S292A; made from plasmid pPG27, plasmid pDK31; Crystallised with 5 mM AMPcPP; also called ɸ12 S292A; S292A mutant; source: E. coli BL21(DE3) or B834(DE3), purified (Heparin, Q-sepharose, Superdex 200)
# Legend:
# [1] = target: ɸ8 P4Δ281 (C-terminally truncated ɸ8 P4, missing residues 281–321) (bacteriophage ɸ8); assay: crystal structure; ɸ8 P4Δ281 crystals from 5 mg/ml protein; 100 mM Tris pH 8.0, 18% PEG 1000; hexamer
# [2] = target: T1, ɸ12 P4 (Pseudomonas phage phi12, UniProt Q94M05); assay: X-ray crystal structure, […] Å; assay type: binding; conditions: 5 mM UTP, pH 4.8; nucleotide site; competitive with ATP, not hydrolysed
# T1 construct: gene 4; plasmid pPG27 (template for mutants), E. coli BL21(DE3) or B834(DE3); hexamer
# [3] = target: ɸ8 P4 (full-length packaging NTPase P4 of bacteriophage ɸ8) (bacteriophage ɸ8); assay: crystal structure; ɸ8 P4 crystals grown at 24°C; 100 mM sodium acetate pH 4.6, […] ammonium sulphate, DTT; protein 3 mg/ml; apo form; hexamer
# [4] = target: ɸ13 P4 (full-length packaging NTPase P4 of bacteriophage ɸ13) (bacteriophage ɸ13); assay: crystal structure; ɸ13 P4 crystals grown at 20°C from 12 mg/ml protein; 100 mM Tris–HCl pH 7.0, 900 mM trisodium citrate, 200 mM NaCl; apo form; hexamer
# [5] = target: the molecule itself; assay: crystal structure; ɸ6 P4Δ310 crystals grown at 24°C from 3.5 mg/ml protein in 20 mM HEPES pH 8.0, 5 mM MgCl2, 2 mM CaCl2, 5 mM ADP, 100 mM NaCl; reservoir 6% PEG 4000, 90 mM sodium acetate pH 4.5; ADP bound; hexamer
# [6] = target: the molecule itself; assay: not stated; quaternary structure of purified ɸ12 P4 mutants as listed in Table 1; method not given
# [7] = target: the molecule itself; assay: crystal structure; wild-type ɸ12 P4 crystals; 10% PEG 1500, 100 mM sodium acetate pH 4.8, 5 mM UTP; hexamer
molecule,measurement,setting,value
"ɸ8 P4Δ281 (C-terminally truncated ɸ8 P4, missing residues 281–321) (domain or fragment)",stoichiometry N,[1],6
O=c1ccn([C@@H]2O[C@H](COP(=O)(O)OP(=O)(O)OP(=O)(O)O)[C@@H](O)[C@H]2O)c(=O)[nH]1 [UTP],"X-ray crystal structure, 1.9 Å",[2],pyrimidine triphosphates can bind the hexamer without being hydrolysed
ɸ8 P4 (full-length packaging NTPase P4 of bacteriophage ɸ8) (enzyme),stoichiometry N,[3],6
ɸ13 P4 (full-length packaging NTPase P4 of bacteriophage ɸ13) (enzyme),stoichiometry N,[4],6
B1,stoichiometry N,[5],6
B2,stoichiometry N,[6],6
B3,stoichiometry N,[6],6
B4,stoichiometry N,[6],6
B5,stoichiometry N,[7],6
B6,stoichiometry N,[6],6
B7,stoichiometry N,[6],6
